According to patent publication US20210017289A1 (AbbVie / Abbott, published 2021):
“And” between values parts separate entries of the source, which are not always exact repeats. Identical values can stand only once.

Legend:
[1] = biological target: T1, human OX40 expressed on cells (human, UniProt P43489 29-277); test: cell-based or functional assay
T1 sequence: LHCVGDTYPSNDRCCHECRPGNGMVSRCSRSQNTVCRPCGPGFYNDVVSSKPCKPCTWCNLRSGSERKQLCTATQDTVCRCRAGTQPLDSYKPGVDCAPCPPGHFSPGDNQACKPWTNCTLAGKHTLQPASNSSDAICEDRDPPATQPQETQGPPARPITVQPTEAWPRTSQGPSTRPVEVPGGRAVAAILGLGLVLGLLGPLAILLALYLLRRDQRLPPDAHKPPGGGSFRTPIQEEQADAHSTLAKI

[2] = biological target: T1, human OX40 expressed on cells; test: cell-based or functional assay; remark: listed apart in the source
[3] = biological target: T2, mouse OX40 expressed on 293s cells (mouse, UniProt P47741 20-272); test: flow cytometry on 293s-muOX40 cells
T2 construct: also called murine OX40
T2 sequence: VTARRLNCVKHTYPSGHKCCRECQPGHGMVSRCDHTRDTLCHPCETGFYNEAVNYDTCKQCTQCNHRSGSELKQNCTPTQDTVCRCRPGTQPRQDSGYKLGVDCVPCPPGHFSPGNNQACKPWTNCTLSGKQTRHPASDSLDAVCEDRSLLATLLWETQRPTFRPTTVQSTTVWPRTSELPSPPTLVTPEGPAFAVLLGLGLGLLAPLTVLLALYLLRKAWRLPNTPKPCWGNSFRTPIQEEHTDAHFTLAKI
Procedure: (§1) After plating cells, 50 μL of Hu3738 or isotype control antibody at 2 μg/mL were added to corresponding wells in duplicate for each cell line and allowed to incubate on ice for 30 minutes. Following incubation, 200 μL of Dulbecco's Phosphate Buffered Saline (DPBS) was added into each well and plates were spun down at 1000 rpm for three minutes. Supernatants from each well were removed and 50 μL of Cy5-Donkey anti-Human IgG (Jackson ImmunoResearch) secondary antibody was added at a 1:250 dilution, which was then incubated for 30 minutes on ice in the dark. Following the incubation period, 200 μL of DPBS was added prior to spinning down the plate at 1000 rpm for three minutes. Supernatants were removed and each well was re-suspended with 100 μL of DPBS+1% Formaldehyde. Samples were analyzed on the dual laser FACSCalibur flow cytometer (Becton Dickinson).

[4] = biological target: T3, human OX40 chimera with murine CRDII replacing human CRDII (human/mouse chimera, UniProt P43489 29-277); test: flow cytometry on 293s-huOX40-muCRDII cells
T3 chain: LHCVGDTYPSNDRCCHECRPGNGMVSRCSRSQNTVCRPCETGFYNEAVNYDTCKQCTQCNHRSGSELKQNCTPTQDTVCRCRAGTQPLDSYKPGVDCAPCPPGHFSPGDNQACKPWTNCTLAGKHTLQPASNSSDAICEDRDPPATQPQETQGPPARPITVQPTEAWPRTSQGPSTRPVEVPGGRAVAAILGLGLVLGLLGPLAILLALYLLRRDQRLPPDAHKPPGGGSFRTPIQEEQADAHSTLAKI
Procedure: as §1

[5] = biological target: T1, human OX40 expressed on cells; test: flow cytometry on CD3/CD28 bead activated human CD4+ T cells
Procedure: After 24 hours, the beads were removed with a magnet. Cells were counted and resuspended to 1.5×10⁶/mL. An aliquot of the cell suspension (100 μL) was used per stain. Test antibody was titrated in a 4-fold dilution series starting at 1 μg/mL. Cells were stained for 30 minutes and washed twice. A 1:250 dilution of (4 μg/mL) of Goat anti Human Fc specific-PE/well (Jackson ImmunoResearch) was added in 100 μL/well PBS containing 1% BSA. Cells were stained for an additional 30 minutes and washed twice, transferred to tubes and acquired using the BD LSR Fortessa flow cytometer, and analyzed using FACSDiva analysis software version 8.0.1.

[6] = biological target: T1, human OX40 expressed on cells; test: flow cytometry on Jurkat NF-κB reporter cells expressing human OX40
Procedure: A Jurkat NF-κB reporter cell line expressing human OX40 protein was cultured in DMEM containing 10% FBS and penicillin/streptomycin (pen/strep). For the binding assay, each cell line was resuspended at 5 million cells per mL. 50 μL (250,000 cells)/well were transferred to each well of a 500 μL polypropylene 96-well plate (Nunc). A 2× stock of test anti-OX40 antibody or isotype control mAb was prepared in a separate dilution plate at 666, 333, 111, 37.03, 12.34, 4.11, 0.457, 0.152, 0.0508, 0.0169, 0.00564 nM in culture media. Each antibody (50 μL/well) was transferred into respective wells of the assay plate. Cells were incubated with the test anti-OX40 antibody or isotype control antibodies for 30 minutes at 4° C. and washed twice with 250 μL/well of PBS by centrifuging at 800 rpm for 3 minutes. Bound antibody was detected with Cy5-Donkey anti-human IgG (H+L) (Jackson ImmunoResearch) diluted to 2 μg/mL (50 μL/well) in PBS for 30 minutes at 4° C. Cells were washed once with 250 μL/well of PBS, resuspended in PBS containing 1% Formaldehyde and analyzed on a dual laser FACSCalibur (Becton Dickinson).

[7] = biological target: T1, human OX40 expressed on cells; test: competition by flow cytometry on Jurkat-NF-κB-huOX40 cells; competitor: ALEXA FLUOR 647-labeled Hu3738 at 2 µg/mL
Procedure: Analysis was performed by flow cytometry.

B1: Hu3738 (antibody, V domains shown)
VH: EVQLVESGGGLVQPGGSLRLSCAASGFTFSRYGMSWVRQAPGKGLELVATINSNGGRTYYPDSVKGRFTISRDNAKNSLYLQMNSLRAEDTAVYYCAREGITTAYAMDYWGQGTTVTVSS
VL: DIVMTQSPDSLAVSLGERATINCKASQSVDYDGDSYMHWYQQKPGQPPKLLIYAASILESGVPDRFSGSGSGTDFTLTISSLQAEDVAVYYCQQSNEDPRTFGGGTKVEIKR
notes: Humanized antibody; also called exemplary anti-OX40 antibody Hu3738; Hu3738 VH.1b / Hu3738 VL.1
- ADCC reporter activity, EC50 [1]: 0.51 nM and 77 ng/mL
- IFN-γ production by human CD4+ T cells, EC50 [1]: 0.16 nM and 24 ng/mL
- proliferation of human peripheral blood CD4+ T cells, EC50 [1]: 0.11 nM and 16 ng/mL
- EC50 With Cross-linker (nM), NF-κB signaling [2]: 0.088 nM
- EC50 Without Cross-linker (nM), NF-κB signaling [2]: 20 nM
- binding result [3]: no binding (tested: 2 µg/mL)
- binding result [4]: no binding (tested: 2 µg/mL)
- EC50 [5]: 53 pM
- EC50 [6]: 0.075 µg/mL
- IC50 (read off the curve) [7]: ~1 µg/mL
